From patent US20250353910A1 (INVENRA, published 2025) come the findings set out here.

Test [1] deals with T1, Cynomolgus B7H3, His-tagged protein (AcroBiosystems Cat #B73-C52Ha) (cynomolgus).
T1 construct: Bought soluble protein; also called Cyno B7H3
In words: BLI (Octet), bispecific antibody captured on biosensor, soluble antigen; via kinetics. As for the experimental part:
(§1) Soluble antigens (e.g., B7H3 or GD2) were then added to the system and binding was measured.
On the technique in general: BLI is a label-free optical method that tracks binding on a fibre tip over time.

Test [2] concerns the target T2, Recombinant Rat B7-H3 Fc Chimera Protein (R&D Systems Cat #10610-B3-050) (rat, UniProt Q7TPB4 29-244).
T2 construct: Bought Fc chimera; not shown: Fc part of the chimera
T2 sequence (looked up): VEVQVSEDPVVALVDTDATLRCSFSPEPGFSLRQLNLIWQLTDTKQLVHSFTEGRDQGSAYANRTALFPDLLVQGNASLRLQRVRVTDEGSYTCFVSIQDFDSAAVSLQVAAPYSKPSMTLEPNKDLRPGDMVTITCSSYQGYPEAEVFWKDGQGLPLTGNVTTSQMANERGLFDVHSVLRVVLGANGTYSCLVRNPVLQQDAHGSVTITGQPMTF
The test is described as above. The protocol: as §1

The target in test [3] is T1, Cynomolgus B7H3, His-tagged protein …. In words: BLI (Octet), bispecific antibody captured on biosensor, soluble antigen. The protocol: as §1
The target of test [4] is T2, Recombinant Rat B7-H3 Fc Chimera …. The test is described as above. The protocol:
as §1

Broadly, the Kd is the free concentration of one partner at which half of the binding sites on the other are occupied at equilibrium, for simple one-to-one binding. The koff is the rate constant with which the complex falls apart. One may read the kon as the rate constant with which the complex forms.

B1: Exemplary Bispecific Antibody 1 (B7H3 x GD2) (bispecific antibody)
chain 1: not shown
chain 2: EVQLVESGGGLVQPGGSLRLSCAASGFTFSTYYIHWVRQAPGKGLEWVAWIHPSGKYTYYADSVKGRFTISADTSKNTAYLQMNSLRAEDTAVYYCARHYQVGAMDYWGQGTLVTVSSAQPREPQVYTLPPCRDWLTKNQVSLTCLVKGFYPSDIAVEWESNGQPENNYKTTPPVLDSDGSFFLYSKLTVDKSRWQQGNVFSCSVMHEALHNHYTQKSLSLSPGK
chain 3: not shown
chain 4: EVQLVESGGGLVQPGGSLRLSCAASGSSFTGYNMNWVRQAPGKGLEWVAAIDPYYGGTYYADSVKGRFTISADTSKNTAYLQMNSLRAEDTAVYYCASGMEYWGQGTLVTVSSASTKGPSVFPLAPSSKSTSGGTAALGCLVKDYFPEPVTVSWNSGALTSGVHTFPAVLQSSGLYSLSSVVTVPSSSLGTQTYICNVNHKPSNTKVDKKVEPKSC
notes: B7H3 arm on chains 1 and 2, GD2 arm on chains 3 and 4; also called Ex. bsAb; 1×1 bispecific antibody
Take B1: the Kd worked out at 1.16 nM in test [1] and 6.88 nM in test [2]. Besides, the koff in test [3] was determined as 0.000239 s⁻¹; in test [4], 0.00137 s⁻¹. For the same molecule, the kon is 206000 M⁻¹ s⁻¹ in test [3] and 199000 M⁻¹ s⁻¹ in test [4].
